Data set [1] deals with Plasmodium berghei Apical Membrane Antigen 1 (PbAMA1).
In data set [2] the test system is Plasmodium berghei Merozoite Surface Protein 1, 42 kDa form (PbMSP1-42).

On to “Plasmodium berghei subtilisin-like protease SUB2 (PbSUB2), TrimycDuoXpress (TmDX) epitope-tagged, as expressed in WT-TmDX1 and SPA-TmDX1 recombinant parasites”, for which the ratio of HSP70-corrected PbAMA1-CT15 maturation product, SPA-TmDX1 (PbSUB2 over-expressing) versus WT-TmDX1 merozoite extracts, Western blot, 6.5 x 10^7 parasites (fold (ratio of corrected amounts)) in data set [1] worked out at 9.7. In data set [2], the ratio of HSP70-corrected PbMSP1-19 maturation product, SPA-TmDX1 (PbSUB2 over-expressing) versus WT-TmDX1 merozoite extracts, Western blot, 1.3 x 10^6 parasites (fold (ratio of corrected amounts)) worked out at 2.9; the ratio of HSP70-corrected PbMSP1-19 maturation product, SPA-TmDX1 (PbSUB2 over-expressing) versus WT-TmDX1 merozoite extracts, Western blot, 6.5 x 10^6 parasites (fold (ratio of corrected amounts)) turned out to be 2.5; the ratio of HSP70-corrected PbMSP1-19 maturation product, SPA-TmDX1 (PbSUB2 over-expressing) versus WT-TmDX1 merozoite extracts, Western blot, 13 x 10^6 parasites (fold (ratio of corrected amounts)) came out at 2.1.

Source of the values: patent US20070014817.
